From publication PMC8910618, “Cognate DNA Recognition by Engrailed Homeodomain Involves A Conformational Change Controlled via An Electrostatic-Spring-Loaded Latch”

Legend:
Conditions in all cases: protein: recombinant; tags: none (untagged, or SUMO/His tag cleaved by ULP1); 15N or 13C,15N labelled for NMR; 5' overhang 1 nt on each strand, 20 bp
[1] = target: T1, engrailed homeodomain (enHD) (UniProt P02836 456-509); test: NMR titration (1H-15N HSQC, W501 and A460); 50 mM NaCl, 25 mM phosphate pH 6.8, 298 K; stated as sub-uM, too tight to evaluate Kd; NMR: 200 uM enHD, 298 K, 5% D2O; 20 mM MES pH 6 + 25 mM NaCl; 20 mM acetate pH 4 + 300 or 700 mM NaCl; 25 mM phosphate pH 6.8 + 50 mM NaCl. CD: 15 uM enHD and DNA, 20 mM MES pH 6, 25 mM NaCl, room temperature
T1 sequence: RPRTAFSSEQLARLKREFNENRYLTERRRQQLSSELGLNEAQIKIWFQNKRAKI

[2] = target: T1, engrailed homeodomain (enHD); test: NMR titration (1H-15N HSQC, R456 side-chain NH); 700 mM NaCl, 20 mM acetate pH 4, 298 K; NMR: 200 uM enHD, 298 K, 5% D2O; 20 mM MES pH 6 + 25 mM NaCl; 20 mM acetate pH 4 + 300 or 700 mM NaCl; 25 mM phosphate pH 6.8 + 50 mM NaCl. CD: 15 uM enHD and DNA, 20 mM MES pH 6, 25 mM NaCl, room temperature
[3] = target: T1, engrailed homeodomain (enHD); test: NMR titration (1H-15N HSQC, A460 and A507); 300 mM NaCl, 20 mM acetate pH 4, 298 K; NMR: 200 uM enHD, 298 K, 5% D2O; 20 mM MES pH 6 + 25 mM NaCl; 20 mM acetate pH 4 + 300 or 700 mM NaCl; 25 mM phosphate pH 6.8 + 50 mM NaCl. CD: 15 uM enHD and DNA, 20 mM MES pH 6, 25 mM NaCl, room temperature

B1: cognate DNA (same as X-ray structure) (dsDNA)
DNA 1: TTTTGCCATGTAATTACCTAA
DNA 2: ATTAGGTAATTACATGGCAAA
Kd [1]: < 1 µM | Kd [2]: 170 ± 2 µM | Kd [3]: 95 ± 20 µM
